In the supplement of paper PMC12764529:
± gives the half width of the 95% confidence interval.

How the values were obtained:
[1] = folding stability dG unfold from chymotrypsin proteolysis; higher = more stable
Method in brief: (§1)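 Unfolding free energy was derived, per protease or combined, by relating Bayesian-fitted K50 values from sequencing counts to a sequence-predicted unfolded-state K50 and a shared folded-state K50. The underlying digests exposed cysteine-free mini-proteins under 80 residues, in a PA-tagged cDNA display construct, to trypsin and chymotrypsin at 11 threefold-diluted concentrations and to a no-protease condition. A filter kept only designs with AlphaFold2 dimer inter-PAE above 15.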

[2] = folding stability dG unfold (combined trypsin and chymotrypsin); higher = more stable
Method in brief: as §1

[3] = folding stability dG unfold from trypsin proteolysis; higher = more stable
Method in brief: as §1

| Sequence | folding stability dG unfold [1] [kcal/mol] | folding stability dG unfold [2] [kcal/mol] | folding stability dG unfold [3] [kcal/mol] |
| --- | --- | --- | --- |
| SAGGSAGGSAGGGIYEVDENGNPLPPRPYLVLKIGYEVGYLPDGGAGLSLNIEIYPVYDASAGGSAGGSAGG [r7_572_TrMRF] | 4.25 ± 0.13 | 3.79 ± 0.23 | 3.18 ± 0.2 |
| SAGGSAGGSAGGGKEISLDELIDIAIELGYPGTIEDLLADPNIKIYPNPYDDKPVILIPDSAGGSAGGSAGG [r7_180_TrMRF] | 0.576 ± 0.053 | 1.25 ± 0.086 | 1.7 ± 0.065 |
| SAGGSAGGSAGGGKKILGVQPELFYDPENGTLYVKTVAVGEDENGAPGDADISVEPFPLLSAGGSAGGSAGG [r7_892_TrMRF] | -0.596 ± 0.54 | -0.277 ± 0.26 | 0.242 ± 0.053 |
| SAGGSAGGSAGGGKKKVTVEFVIKVPKNSKPVFFTIKGGIKVEFYPIPDTNYALVKVTFGSAGGSAGGSAGG [r7_796_TrMRF] | 3.92 ± 0.12 | 3.52 ± 0.15 | 2.46 ± 0.19 |
| SAGGSAGGSAGGGKLAIRVEIEPVRTETRLRADGSLETRTEFRVRIEIRPVGNPDDPRNNSAGGSAGGSAGG [r7_523_TrMRF] | 4.36 ± 0.056 | 3.89 ± 0.073 | 2.89 ± 0.059 |
| SAGGSAGGSAGGGKPVKVIVVEVGGKKVLVTFDEDTGKLTVYNLDTGKTETVTVSPEDLSAGGSAGGSAGGS [r10_669_TrROS_Hall] | 1.67 ± 0.066 | 1.77 ± 0.16 | 1.83 ± 0.12 |
| SAGGSAGGSAGGGKSITKVYTLPNGGKAVAVYNPETGKVEVYFFKPNGKLLEKKTFKAKSAGGSAGGSAGGS [r10_1044_TrMRF] | 2.84 ± 0.07 | 2.51 ± 0.11 | 2.18 ± 0.068 |
| SAGGSAGGSAGGGLGYRTLTGRVEFELNITYLTEDGSPATLNLRFELELRFVVPVPPDYPSAGGSAGGSAGG [r7_926_TrMRF] | 5.54 ± 0.098 | 5.37 ± 0.14 | 3.7 ± 0.14 |
| SAGGSAGGSAGGGLSSAPPPVVALSSSVSLVPSPSGGILTVTTTTDAGSGTTTTTTTALSAGGSAGGSAGGS [r10_1137_JUSTAS] | 0.758 ± 0.025 | 1.71 ± 0.042 | 2.44 ± 0.068 |
| SAGGSAGGSAGGGMARAEKLPSSWTLVSVTPRDGSTVVTYKLPDGSTLTLDLRPDSYDGASAGGSAGGSAGG [r7_775_JUSTAS] | 1.46 ± 0.15 | 1.1 ± 0.075 | 0.436 ± 0.058 |
| SAGGSAGGSAGGGMKVKIETTKLPNGIWRVKVYDENGNFIGEKEFTSEEELEEFKKKVASSAGGSAGGSAGG [r7_476_JUSTAS] | 4.6 ± 0.14 | 4.49 ± 0.19 | 2.98 ± 0.25 |
| SAGGSAGGSAGGGMMKTVLISLEGVDPSGGPSRRVEIELTLSPEEIPKVIEELAKAGRVLSAGGSAGGSAGG [r7_618_JUSTAS] | -0.0881 ± 0.1 | 0.232 ± 0.099 | 0.533 ± 0.058 |
| SAGGSAGGSAGGGMMLAEFLKYDPRNPTATVVSVRTFSDPEEARAEAEKRGLLVRVIEPSAGGSAGGSAGGS [r10_657_JUSTAS] | 0.0192 ± 0.16 | -0.111 ± 0.1 | -0.45 ± 0.28 |
| SAGGSAGGSAGGGMSLSYTVTTSTTVVPAPDGVTVLHPTTTTFPGGPTTTTTTVTVEPAGSAGGSAGGSAGG [r7_701_JUSTAS] | -0.855 ± 0.12 | 0.409 ± 0.051 | 0.872 ± 0.021 |
| SAGGSAGGSAGGGMVIVTREPENLTFTVYREDPSTGKLRRIGTFPVSPDELEKVLALLSSAGGSAGGSAGGS [r10_275_JUSTAS] | 2.47 ± 0.074 | 2.2 ± 0.079 | 1.77 ± 0.053 |
| SAGGSAGGSAGGGNSLSSVRVVPVTLRTSEPLEQDGDPRPREFTETTVVRITETVPPGLSAGGSAGGSAGGS [r10_118_JUSTAS] | 0.57 ± 0.082 | 0.356 ± 0.11 | 0.0729 ± 0.18 |
| SAGGSAGGSAGGGPAPGKGLVVKLEPEEFEFENFRLIVVKAVKDDKLIAEIAYLISPDESAGGSAGGSAGGS [r10_628_TrMRF] | 0.823 ± 0.18 | 0.904 ± 0.12 | 1.05 ± 0.12 |
| SAGGSAGGSAGGGPDAVRQFPPPVNLSVEVTSYTSPSSSLSNGKPEKSTFTTLNPTAGVSAGGSAGGSAGGS [r10_877_JUSTAS] | 0.0744 ± 0.19 | 0.139 ± 0.11 | 0.0381 ± 0.13 |
| SAGGSAGGSAGGGSFVLTRHTRTGLRRRVYFDPETGELTVELETGTESRTTLSPLSPDLSAGGSAGGSAGGS [r10_376_TrMRF] | 0.748 ± 0.064 | 0.489 ± 0.058 | -0.215 ± 0.2 |
| SAGGSAGGSAGGGSITITFKHPDGGEVTIEITPPEPTVRVTVTLPNGEKLEYEFDFVPASAGGSAGGSAGGS [r10_595_TrMRF] | 3.68 ± 0.11 | 3.58 ± 0.14 | 3.24 ± 0.22 |
| SAGGSAGGSAGGGSMKEKKLTVGDKEIIVTYNPETGTATVKSPENSVSVFPLEELKKLLSAGGSAGGSAGGS [r10_1140_JUSTAS] | 0.741 ± 0.1 | 0.318 ± 0.24 | -1.25 ± 0.93 |

| Sequence | folding stability dG unfold [1] [kcal/mol] | folding stability dG unfold [2] [kcal/mol] | folding stability dG unfold [3] [kcal/mol] |
| --- | --- | --- | --- |
| SAGGSAGGSAGGGSMSITVPMSPEEGKKLAEEIKEKLKSEGNPVEVTVTIVSPTDPSLLSSAGGSAGGSAGG [r7_776_JUSTAS] | 0.167 ± 0.066 | 0.41 ± 0.17 | 0.627 ± 0.04 |
| SAGGSAGGSAGGGSMTLTEVFVDPETGTRTVRTTTLYTLPNGTLTSTTTTTVEPLPGELSAGGSAGGSAGGS [r10_1258_JUSTAS] | 1.87 ± 0.025 | 1.76 ± 0.043 | 1.51 ± 0.022 |
| SAGGSAGGSAGGGTAEELAKELEDLGYKVKLEPEGDYLLLTVTDPDNDKPYVILLDPETISAGGSAGGSAGG [r7_0_TrMRF] | 0.776 ± 0.028 | 0.991 ± 0.035 | 1.25 ± 0.067 |
| SAGGSAGGSAGGGVEVLSAERRRIPETGLVLVVIREKEPLKPIVVLMPEEDAVVFLKHFSAGGSAGGSAGGS [r10_988_TrMRF] | 0.92 ± 0.1 | 0.703 ± 0.091 | 0.14 ± 0.094 |
| SAGGSAGGSAGGGVVTLPDLKGLSEEELKALAEEIAKKLGLENVPLKLEFGEDGNLTLVLSAGGSAGGSAGG [r7_810_JUSTAS] | 1.24 ± 0.054 | 1.74 ± 0.11 | 2.15 ± 0.077 |
| SAGGSAGGSAGGHYIRAEIEIKYEHPGNGQEQTMTIPIEIPIPPPPPVSAEDRAKQNGIGSAGGSAGGSAGG [r7_79_TrROS] | 0.855 ± 0.041 | 0.669 ± 0.065 | 0.318 ± 0.084 |
| SAGGSAGGSAGGIGPEIVEAALIEAKEKVPEDEEVEILVRDPVTGEVLRLRIYPDRVELGSAGGSAGGSAGG [r7_44_TrMRF] | 0.785 ± 0.14 | 0.698 ± 0.19 | 0.384 ± 0.11 |
| SAGGSAGGSAGGIKDVKITEFERHPENNWYEVKISIPNGKPVEIPMNPGQSAEDILDQISAGGSAGGSAGGS [r10_984_TrROS] | 0.651 ± 0.045 | 0.421 ± 0.2 | -0.418 ± 0.19 |
| SAGGSAGGSAGGIKLENPNGFEVYKSPDSMVEIEFVNPNGKPMRYIIQVDEPGEIKPYPVSAGGSAGGSAGG [r7_423_TrROS] | 0.0804 ± 0.23 | 0.0566 ± 0.2 | 0.0628 ± 0.13 |
| SAGGSAGGSAGGIYPGPGNLLYFTGEDDYVKVIKITPPDNTIKIDIEIVPKGEATKIPYSAGGSAGGSAGGS [r10_257_TrMRF] | -0.331 ± 0.28 | -0.00595 ± 0.097 | 0.161 ± 0.059 |
| SAGGSAGGSAGGKELEIVLYDKETNVLVTAKVRMENGKLTITEVKVEKVKPPKLPPGVKPSAGGSAGGSAGG [r7_276_TrROS_Hall] | 2.44 ± 0.071 | 2.14 ± 0.079 | 1.48 ± 0.06 |
| SAGGSAGGSAGGKHKIPITNVHVSPPNGYIHVTIRFPGDGKPIEIHFPVPPGEPITIEISAGGSAGGSAGGS [r10_940_TrROS] | 3.53 ± 0.27 | 2.74 ± 0.2 | 2.28 ± 0.14 |
| SAGGSAGGSAGGKIDRIQLHYNPGGNVYFRIYGPNGKPRYFMMPAEDLEDFPNAPIEIYPSAGGSAGGSAGG [r7_238_TrROS] | 0.847 ± 0.11 | 0.864 ± 0.096 | 0.648 ± 0.04 |
| SAGGSAGGSAGGKIIVVKDKETGKYRVIIVDKKTKKTIVVEVDPNTTLEEALKKAKELLKSAGGSAGGSAGG [r7_138_TrROS_Hall] | 3.97 ± 0.12 | 3.52 ± 0.24 | 3.05 ± 0.12 |
| SAGGSAGGSAGGKIKDIDVQQMPDGWYWVEIEIPDPNGEEVKITIMFPPGHSVDDALDQLSAGGSAGGSAGG [r7_54_TrROS] | 1.03 ± 0.093 | 1.04 ± 0.22 | 1.01 ± 0.069 |
| SAGGSAGGSAGGKIKILKKNKTKEEIKKELAEKYNVKKIEIKPIKGNTYLVEIEVEPEESAGGSAGGSAGGS [r10_1219_TrMRF] | 0.634 ± 0.22 | 0.292 ± 0.25 | -0.364 ± 0.24 |
| SAGGSAGGSAGGKIKLTVTVDADGNATVTLEIEVESPEDKPFTIRLTLTFPLKDGESLTSAGGSAGGSAGGS [r10_763_TrMRF] | 3.88 ± 0.12 | 3.82 ± 0.17 | 3.9 ± 0.29 |
| SAGGSAGGSAGGKIKPGQTVIFIELKITKQRDGPDGKRYMEFEIERIDIFRIPPGDNILSAGGSAGGSAGGS [r10_826_TrROS] | 3.18 ± 0.13 | 3.03 ± 0.13 | 2.55 ± 0.068 |
| SAGGSAGGSAGGKILVITAKIEDIPEIIEAAKKLGIDSVIIDIPETKEKIIITKDSVKLISAGGSAGGSAGG [r7_564_TrMRF] | 1.76 ± 0.089 | 1.63 ± 0.14 | 1.54 ± 0.057 |
| SAGGSAGGSAGGKITFAPKTTLLLTATIPVTVYSLHPDGTLTTETRSATITFTIPPELLSAGGSAGGSAGGS [r10_383_TrMRF] | 4.1 ± 0.074 | 3.64 ± 0.12 | 2.4 ± 0.086 |
| SAGGSAGGSAGGKIYKKKNGTYKIIIYDKKTKKVYEIEIPVSKEDKPKILKEAKELAKKSAGGSAGGSAGGS [r10_379_TrROS_Hall] | 1.49 ± 0.096 | 1.17 ± 0.084 | 0.609 ± 0.11 |
